Where a chain is given by its changes, count along the chain named. Numbers in names are those of the source.
T1: Cyno Cadherin-19 (cynomologous monkey (Macaca …, UniProt Q9H159 44-772 (human entry)))
T1 construct: also called cynomologous monkey CDH-19
T1 chain: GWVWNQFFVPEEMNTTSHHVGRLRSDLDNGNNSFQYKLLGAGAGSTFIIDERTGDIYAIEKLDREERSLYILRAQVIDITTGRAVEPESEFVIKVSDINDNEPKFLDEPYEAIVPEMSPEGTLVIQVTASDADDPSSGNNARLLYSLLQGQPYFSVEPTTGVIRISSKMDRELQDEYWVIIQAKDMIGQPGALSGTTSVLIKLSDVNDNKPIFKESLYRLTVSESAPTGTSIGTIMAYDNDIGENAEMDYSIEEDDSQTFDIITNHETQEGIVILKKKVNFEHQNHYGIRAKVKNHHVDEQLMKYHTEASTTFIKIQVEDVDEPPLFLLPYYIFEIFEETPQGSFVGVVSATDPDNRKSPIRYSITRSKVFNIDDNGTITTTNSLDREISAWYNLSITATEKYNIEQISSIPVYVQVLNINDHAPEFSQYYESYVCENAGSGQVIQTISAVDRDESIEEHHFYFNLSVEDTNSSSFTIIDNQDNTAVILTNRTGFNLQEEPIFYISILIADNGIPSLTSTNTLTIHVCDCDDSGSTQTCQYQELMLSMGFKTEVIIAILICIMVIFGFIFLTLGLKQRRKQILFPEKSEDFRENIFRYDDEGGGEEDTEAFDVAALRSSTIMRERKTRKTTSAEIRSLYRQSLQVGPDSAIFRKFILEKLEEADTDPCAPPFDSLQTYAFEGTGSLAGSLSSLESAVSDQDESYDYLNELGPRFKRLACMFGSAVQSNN

B1: hu anti-<huCDH19> 26D1.1 (1-469)(R27G,G82R) VH::huIgG1z + 26D1.1 (1-235)(H1Q,S7P) VL::huLLC-C2 (Ab ID 14088) (antibody, V domains shown)
VH: QVQLVQSGAEVKKPGASVKVSCKASGYTFTSYYMSWVRQAPGQGLEWMGIIHPSGGDTTYAQKFQGRVTMTRDTSTSTVYMELSSLRSEDTAVYYCARGGIKLWLHFDYWGQGTLVTVSS
VL: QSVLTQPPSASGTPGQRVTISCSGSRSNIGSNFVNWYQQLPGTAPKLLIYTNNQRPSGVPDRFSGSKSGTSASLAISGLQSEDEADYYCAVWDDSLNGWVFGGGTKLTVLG
notes: Engineered variant of 26D1; the entries already carry the changes; Bin 2
B2: hu anti-<huCDH19> 25F8.1 VH::huIgG1z + 25F8.1 (1-235)(K45Q,S102A) VL::huLLC-C2 (Ab ID 14094) (antibody, V domains shown)
VH: B1 VH with M34I, S35H, H52N, D57S, T59R, Y80F, K102Q
VL: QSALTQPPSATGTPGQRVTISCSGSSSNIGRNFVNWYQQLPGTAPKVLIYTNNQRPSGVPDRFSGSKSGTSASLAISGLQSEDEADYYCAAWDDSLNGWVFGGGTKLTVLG
notes: Engineered variant of 25F8; the entries already carry the changes; Bin 2
B3: hu anti-<huCDH19> 25F8.1 (Ab ID 13880) (antibody, human IgG1, lambda, V domains shown)
VH: B1 VH with M34I, S35H, H52N, D57S, T59R, Y80F, K102Q
VL: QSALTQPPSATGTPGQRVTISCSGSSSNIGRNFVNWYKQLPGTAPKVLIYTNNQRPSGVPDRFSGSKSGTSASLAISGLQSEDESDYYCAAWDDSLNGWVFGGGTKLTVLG
notes: huIgG1z / huLLC-C2; Bin 2
B4: hu anti-<huCDH19> 4A9 VH::huIgG1z + 4A9 (1-239)(F47L) VL::huLLC-C1 (Ab ID 14056) (antibody, V domains shown)
VH: QVQLQESGPGLVKPSETLSLTCTVSGGSISGYYWSWIRQPPGKGLEWFAYFSYSGSTNYNPSLKSRVTLSVDTSKNQFSLKLSSVTAADTAVYYCARNWAFHFDFWGQGTLVTVSS
VL: QSVLTQPPSVSGAPGQRVTISCTGSSSNIGTGYAVHWYQQLPGTAPKLLIYGNNNRPSGVPDRFSGSKSGTSASLAITGLQAEDEADYYCQSYDSRLSGWVFGGGTKLTVLG
notes: Engineered variant of 4A9; the entries already carry the changes; Bin 1
B5: hu anti-<huCDH19> 4A9 (1-468)(F55I,A56G) VH::huIgG1z + 4A9 (1-239)(F47L) VL::huLLC-C1 (Ab ID 14057) (antibody, V domains shown)
VH: B4 VH with F48I, A49G
VL: B4 VL
notes: as for B4
B6: hu anti-<huCDH19> 4B10 (1-471)(R17G,D61E,D72E) VH::huIgG1z + 4B10 (1-236)(H45Q,A90T) VL::huKLC (Ab ID 14055) (antibody, V domains shown)
VH: QVQLVESGGGVVQPGGSLRLSCAASGFTFSSYDMHWVRQAPGKGLEWVAVISYEGTNEYYAESVKGRFTISRDTSKNTLYLQMNSLRAEDTAVYYCARERYFDWSFDYWGQGTLVSVSS
VL: EIVLTQSPGTLSLSPGERATLSCRASQSVSNTYLAWYQQRPGQAPRLLIYGASSRATGIPDRFSGSGSGTDFTLTISSLEPEDFAVYYCQQYSNSWTFGQGTKVEIKR
notes: Engineered variant of 4B10; the entries already carry the changes; Bin 4
B7: hu anti-<huCDH19> 22G10.1 (Ab ID 13877) (antibody, human IgG1, kappa, V domains shown)
VH: EVQLLESGGGLVQPGGSLRLSCAASGFTFSSYAMNWVRQAPGKGLEWVSTISGGGANTYYADSVKGRFTISSDNSKSTLYLQMNSLRAADTAVYHCAKGGMGGYYYGMDVWGQGTTVTVSS
VL: EIVMTQSPVTLSLSLGERATLSCRASQSISSNLAWFQQKPGQAPRLLIYGAFTRATGIPARVSGSGSGTEFTLTISSLQSEDFAVYYCQQYNYWPLTFGGGTKVEIKR
notes: huIgG1z / huKLC; Bin 3
B8: anti-CDH19 antibody 23A10 (Ab ID 13884) (antibody, human IgG1, lambda, V domains shown)
VH: QVQLVESGGGVVQPGRSLRLSCAASGFTFSRYGIHWVRQAPGKGLEWVAVIWYDGSNKYYADSVKGRFTISRDNSKNTLYLLMNSLRAEDSAVYYCARRAGIPGTTGYYYGMDVWGQGTTVTVSS
VL: SYELTQPPSVSVSPGQTASITCSGDRLGEKYVCWYQQKPGQSPILVIYQDNKWPSGIPERFSGSNSGNTATLTISGTQAMDEADYYCQAWDSSTVVFGGGTKLTVLG
notes: Bin 4
B9: hu anti-<huCDH19> 25G10.1 (Ab ID 13883) (antibody, human IgG1, kappa, V domains shown)
VH: QVQLQESGPGLVKPSETLSLTCTVSGGSISGYYWSWIRQPPGKGLEWIGYIYYIGSTNYNPSLKSRVTMSVDTSKNQFSLKLSSVTAADTAVYYCARDGSSGWYRWFDPWGQGTLVTVSS
VL: EIVLTQSPGTLSLSPGERATLSCRASQSVSSSYLAWYQQKPGQAPRLLIFGASSRATGIPDRFSGSGSGTDFTLTISRLEPEDFAVYHCQQYGNSPLTFGGGTKVEIKR
notes: huIgG1z / huKLC; Bin 3
B10: hu anti-<huCDH19> 16C1.1 (Ab ID 13875) (antibody, human IgG1, kappa, V domains shown)
VH: B9 VH with V71I, K81T, V85L, Y94F
VL: B9 VL with R78G
notes: huIgG1z / huKLC; Bin 3
B11: hu anti-<huCDH19> 20D3.1 (Ab ID 13878) (antibody, human IgG1, lambda, V domains shown)
VH: QVQLVQSGAEVKKPGASVKVSCKVSGYTFTSYFIHWVRQAPGQGLEWMGIINPISVSTSYAQKFQGRVTMTRDTSTSTVFMELSSLRSEDTAVYYCARGGIQLWLHFDYWGQGTLVTVSS
VL: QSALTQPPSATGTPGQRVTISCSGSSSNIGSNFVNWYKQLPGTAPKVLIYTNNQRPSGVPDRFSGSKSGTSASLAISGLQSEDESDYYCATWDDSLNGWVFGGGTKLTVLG
notes: huIgG1z / huLLC-C2; Bin 2; also called 16H2; 23E7
B12: hu anti-<huCDH19> 22D1.1 (Ab ID 13879) (antibody, human IgG1, lambda, V domains shown)
VH: B11 VH with K19R, F107L
VL: QSALTQPPSATGTPGQRVTISCSGSSSNIGSNFVNWYKQLPGTAPKVLIYTNNQRPSGVPDRFSGSKSGTSASLAISGLQSEDESDYYCATWDDSMNGWVFGGGTKLTVLG
notes: huIgG1z / huLLC-C2; Bin 2
B13: hu anti-<huCDH19> 19B5.1 (Ab ID 13885) (antibody, human IgG1, lambda, V domains shown)
VH: B11 VH with F107L
VL: B12 VL with A10T, S26R
notes: huIgG1z / huLLC-C2; Bin 2
B14: hu anti-<huCDH19> 4F7 (Ab ID 13591) (antibody, human IgG1, lambda, V domains shown)
VH: B4 VH with G31S, Y33S, F48I, A49G, F51I, S52Y, L69I, V71L, F105Y
VL: B4 VL with A34D, Y51H, N54S, R96S, K107R
notes: huIgG1z / huLLC-C1; Bin 1

What follows are binders tested against T2, huCDH19(44-141)::muCDH19(140-770) with Flag tag (construct B, Hu EC1) (human/mouse chimera) (assay: flow cytometry, transfected 293T cells).
T2 construct: leader left out; the entry starts at residue 44; also called C137897
From the text: (§1) The experiment included assaying the anti-CDH19 antibodies against mouse Cadherin19 to determine suitability for binning on these human/mouse chimeras.

binding result | Binder
binds | B1
binds | B2
binds | B3
binds | B4
binds | B5

The binders below were run against T3, huCDH19(44-249)::muCDH19(248-770) with Flag tag (construct C, Hu EC1-2) (human/mouse chimera) (assay: flow cytometry, transfected 293T cells).
T3 construct: leader left out; the entry starts at residue 44; also called C137896
From the text: as §1

binding result | Binder
binds | B1
binds | B2
binds | B3
binds | B4
binds | B5

What follows are binders tested against huCDH19(44-772) with Flag tag (construct A, Hu EC1-5) (human, UniProt Q9H159 44-772) (assay: flow cytometry, transfected 293T cells).
From the text: as §1

binding result | Binder
binds | B6
binds | B1
binds | B2
binds | B3
binds | B4
binds | B5

These binders were tested against T4, Human Cadherin-19 (human, UniProt Q9H159 44-772) (assay: FACS, endogenous CDH-19 on CHL-1 and Colo699 tumor cells).
T4 construct: also called CDH19; huCDH19
Method: FACS binding assays were performed to evaluate the binding of the anti-Cadherin-19 receptor specific antibodies to endogenous Cadherin-19 receptor expressed on the CHL-1 tumor cell lines.
FACs assays were performed by incubating hybridoma supernatants with 10,000 to 25,000 cells in PBS/2% Fetal bovine serum/2 mM Calcium Chloride at 4° C. for one hour followed by two washes with PBS/2% Fetal bovine serum/2 mM Calcium Chloride. Cells were then treated with florochrome-labeled secondary antibodies at 4° C. followed by one wash. The cells were resuspended in 50 μl of PBS/2% FBS and antibody binding was analyzed using a FACSCalibur™ instrument.

binding result | Binder
binds | B7
binds | B8
binds | B9
binds | B10
binds | B11
binds | B12
binds | B13
binds | B3
binds | B14

Target: T1, Cyno Cadherin-19
Experiment: FACS, recombinant cynomologous CDH-19

binding result | Binder
binds | B7
binds | B8
binds | B11
binds | B12
binds | B13
binds | B3
binds | B14
